Experimental findings from US20110002945A1 are described below.

Experiment [1] has as its target recombinant λ6-variable domain light chain Jto in fibrillar form. Nature of the experiment: binding to plate-immobilized fibrils.
For experiment [2] the target is unchanged. As to the kind of experiment: EuLISA on plate-immobilized fibrils.
The target of experiment [3] is fibrillar Aβ1-40 peptide (Homo sapiens (Human)) (UniProt P05067).
Sequence of fibrillar Aβ1-40 peptide (Homo sapiens (Human)) (P05067 672-711 limits assumed): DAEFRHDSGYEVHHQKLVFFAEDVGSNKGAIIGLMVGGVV

B1: antibody heavy chain F1 (protein)
heavy: AMDWTWSILFLVAAATGAHSQVQLVQSGAEVKKPGASVKVSCKASGYTFSSNGIIWVRQAPGQGLEWLGWISGYNGKTRYAQKVQGRVTITTDTSTSTAYMELRSLRSDDTAVYYCAREKTMVRGAISGYSDYWGQGTLVTVSSASTKGPSVFPLAPSSKSTSGGTAALGCLVKDYFPEPVTVSWNSGALTSGVHTFPAVLQSSGLYSLSSVVTVPSSSLGTQTYICNVNHKPSNTKVDKKRVEPKSCDKTHTCPPCPAPELLGGPSVFLFPPKPKDTLMISRTPEVTCVVVDVSHEDPEVKFNWYVDGVEVHNAKTKPREEQYNSTYRVVSVLTVLDHQDWLNGKEYKCKVSNKALPAPIEKTISKAKGQPREPQVYTLPPSREELMTKNQVSLTCLVKGFYPSDIAVEWESNGQPENNYKTTPPVLDSDGSFFLYSKLTVDKSRWQQGNVFSCSVMHEALHNHYTQKSLSLSPGK
Usually EC50 stands for the concentration giving half of the maximal effect. For B1, the affinity in experiment [1] stood at 20 nM. Also, in experiment [2], the 50% effective concentration (EC50) stood at 24 nM and the Max. Eu3+ turned out to be 195 fmol. In experiment [3], this molecule had an Aβ fibril growth (recruitment of soluble biotinylated Aβ monomer to plate-bound Aβ1-40 fibrils, EuLISA) of 1 µM.
